# Measurements: IntAct's records for PubMed 15023544
# B1: 14-3-3 protein zeta/delta (Homo sapiens), P63104 (parent)
# chain: MDKNELVQKAKLAEQAERYDDMAACMKSVTEQGAELSNEERNLLSVAYKNVVGARRSSWRVVSSIEQKTEGAEKKQQMAREYREKIETELRDICNDVLSLLEKFLIPNASQAESKVFYLKMKGDYYRYLAEVAAGDDKKGIVDQSQQAYQEAFEISKKEMQPTHPIRLGLALNFSVFYYEILNSPEKACSLAKTAFDEAIAELDTLSEESYKDSTLIMQLLRDNLTLWTSDTQGDEAEAGEGGEN
# Variants of: B1
# Settings: with m3k5_human MAP3K5, Q99683
# Chain of m3k5_human MAP3K5, Q99683 (Q99683 whole entry): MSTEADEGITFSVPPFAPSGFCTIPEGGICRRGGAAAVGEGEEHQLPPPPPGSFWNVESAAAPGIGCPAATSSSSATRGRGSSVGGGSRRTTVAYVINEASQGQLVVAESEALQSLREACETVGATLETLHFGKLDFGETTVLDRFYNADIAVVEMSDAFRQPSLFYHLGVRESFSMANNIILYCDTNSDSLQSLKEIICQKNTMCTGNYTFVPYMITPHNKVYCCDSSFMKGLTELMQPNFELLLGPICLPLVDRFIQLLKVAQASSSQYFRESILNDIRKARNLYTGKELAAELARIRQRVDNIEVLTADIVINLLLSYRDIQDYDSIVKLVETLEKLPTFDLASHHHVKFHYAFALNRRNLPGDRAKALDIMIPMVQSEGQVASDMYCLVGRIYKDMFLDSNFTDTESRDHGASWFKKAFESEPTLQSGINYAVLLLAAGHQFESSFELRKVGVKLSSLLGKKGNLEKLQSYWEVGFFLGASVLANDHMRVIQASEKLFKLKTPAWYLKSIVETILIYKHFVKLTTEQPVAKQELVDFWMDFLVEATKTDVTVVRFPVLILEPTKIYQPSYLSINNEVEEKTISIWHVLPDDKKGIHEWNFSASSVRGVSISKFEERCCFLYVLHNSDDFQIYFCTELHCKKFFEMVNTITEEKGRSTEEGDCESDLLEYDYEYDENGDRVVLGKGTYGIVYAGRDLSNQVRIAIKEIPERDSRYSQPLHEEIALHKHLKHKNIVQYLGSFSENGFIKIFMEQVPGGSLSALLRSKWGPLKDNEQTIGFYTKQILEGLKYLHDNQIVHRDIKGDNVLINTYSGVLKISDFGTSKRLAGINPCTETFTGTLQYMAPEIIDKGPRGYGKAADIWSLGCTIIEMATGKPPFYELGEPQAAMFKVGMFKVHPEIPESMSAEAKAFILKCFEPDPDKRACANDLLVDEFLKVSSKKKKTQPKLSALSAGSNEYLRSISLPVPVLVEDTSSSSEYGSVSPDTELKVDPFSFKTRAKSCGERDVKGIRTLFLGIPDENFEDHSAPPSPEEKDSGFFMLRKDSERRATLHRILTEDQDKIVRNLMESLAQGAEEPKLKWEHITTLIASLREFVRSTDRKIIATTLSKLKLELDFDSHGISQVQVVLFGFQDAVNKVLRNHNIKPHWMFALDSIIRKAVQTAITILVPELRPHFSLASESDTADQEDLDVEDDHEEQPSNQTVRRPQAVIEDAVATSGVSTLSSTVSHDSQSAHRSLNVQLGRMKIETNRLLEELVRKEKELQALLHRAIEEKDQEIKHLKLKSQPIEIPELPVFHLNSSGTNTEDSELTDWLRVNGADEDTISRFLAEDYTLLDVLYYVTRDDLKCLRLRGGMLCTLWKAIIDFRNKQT
row,effect of a mutation on the interaction,Variant
1,decreasing interaction,K49E;R56E;R60E;V176D;L220E
